Assay results reported in US20130022611A1, “METHODS AND COMPOSITIONS FOR MODULATING HEPSIN ACTIVATION OF UROKINASE-TYPE PLASMINOGEN ACTIVATOR” (Genentech, Inc., priority 2006, published 2013).

What was measured:
pro-tPA = molecular target: T1, pro-tPA (Homo sapiens, UniProt P00750); test: Pro-tPA cleavage analysed by SDS-PAGE; format: biochemical; details: 1.5 μM pro-tPA, 15 nM enzyme, 10 and 60 min
T1 construct: purchased Biodesign International (Saco, Me.)
Procedure: Pro-uPA at a concentration of 1.5 μM was incubated with 15 nM hepsin or 15 nM plasmin in Hepes buffer at room temperature. […] The samples were analyzed by SDS-PAGE using a 4-20% gradient gel (Invitrogen; Carlsbad, Calif.). Protein was visualized after staining with SimplyBlue Safe Stain (Invitrogen). Experiments with pro-tPA (1.5 μM) were carried out identically, except that the buffer used was 50 mM sodium phosphate pH 7.5, 200 mM arginine, 0.01% Tween-20.

pro-uPA = molecular target: T2, pro-uPA (Homo sapiens, UniProt P00749); test: First-order kinetics of pro-uPA activation by serine proteases; format: biochemical; details: for Added pro-uPA converted during the experiment / First-order rate constant k ± SD: 30 nM pro-uPA, 3 nM enzyme; for First-order rate constant k ± SD: room temperature, 5 experiments; for Efficiency of pro-uPA activation compared to matriptase: kcat/Km ratio
T2 construct: time-dependent cleavage of the single-chain form into the two-chain form; purchased Cortex Biochem (San Leandro, Calif.)
Procedure: The Km and kcat values for pro-uPA activation could not be accurately determined because the pro-uPA stock solution from the supplier (0.8 mg/ml) was not sufficiently high. Therefore, we chose to determine the first-order rate constant k as a measure of pro-uPA conversion efficiency. It was ensured that the pro-uPA concentration used (30 nM) was in the range of first-order kinetics for the enzymes tested, i.e. hepsin, plasmin and matriptase. The rate of uPA formation by these enzymes was linear up to 200 nM of pro-uPA. Pro-uPA (30 nM) was added to the enzymes (3 nM) in Hepes buffer to start the reaction at room temperature. At various time points, 50-μl aliquots were removed and added to 150 μl of 667 nM HAI-2 (final concentration in 250 μl was 400 nM) in Hepes buffer to stop further pro-uPA cleavage. […] Our results on HAI-2 inhibition of plasmin and HGFA (data not shown) were consistent with the published data (26,27). After addition of 50 μl of 2.5 mM S2444, the increase in absorbance at 405 nm was measured on a kinetic microplate reader. The concentration of uPA in each aliquot was calculated from a standard curve of enzymatically converted pro-uPA. The data were expressed as the decrease in the concentration of pro-uPA (log [pro-uPA]) as function of time. The first-order rate constant k was calculated from the slope using the equation
log [S]=−(k/2.3)t+log [S]0
where [S] is the concentration of pro-uPA and [S]0 is the initial pro-uPA concentration. The catalytic efficiency, kcat/Km, was then calculated using the known enzyme concentration [E] and the relationship k=(kcat/Km)[E]. The values are the average of 5 experiments±SD.

[1] = test system: LnCaP-34 cells (hepsin-overexpressing); test: Pro-uPA conversion by LnCaP-34 cells, immunoblotting; format: cell-based, human; details: LnCaP-34, 30 nM pro-uPA, 1 h, 3 h, 5 h, 37° C.
Procedure: For immunoblotting experiments, confluent LnCaP-34 cell layers were washed as above and incubated with 30 nM pro-uPA at 37° C. After 1 hr, 3 hr and 5 hr, aliquots were taken and immediately added to SDS sample buffer. The proteins were separated by SDS-PAGE and transferred onto nitrocellulose filters using the Bio-Rad Semi Dry Transfer system. Pro-uPA and uPA were visualized by using a rabbit polyclonal anti-uPA antibody (Cell Sciences; Canton, Mass.) followed by HRP-conjugated anti-rabbit antibody (Jackson ImmunoResearch Laboratory; West Grove, Pa.) and ECL (GE Healthcare; Piscataway, N.J.) enhancement.

[2] = test system: LnCaP-34 cells (hepsin-overexpressing); test: Pro-uPA activation by LnCaP-34 cells (two-stage enzymatic assay); format: cell-based, human
Procedure: (§1) Confluent LnCaP-34 and LnCaP-17 cells were washed with HBSA-Glucose buffer (20 mM Hepes pH 7.5, 150 mM NaCl, 5 mM CaCl2, 0.05 mg/ml BSA, 5 mM glucose) and 0.8 ml of 100 nM pro-uPA in pre-warmed HBSA-Glucose buffer was added to the cell layers. The inhibitors KD1 or HI-10331 were added to give final concentrations of 1 μM and 10 μM, respectively. The culture plates were kept at 37° C. and 50 μl samples were withdrawn at different time points, supplemented with 0.2 ml of […] S2444 in Hepes buffer and the increase in absorbance at 405 nm measured on a kinetic microplate reader. Cell numbers were determined at the end of the experiments. The concentration of formed uPA in each sample was calculated from a standard curve of enzymatically converted pro-uPA and normalized to 10^6 cells. After subtracting the background levels of uPA formed in the absence of cell layer, the linear rates of uPA formation/10^6 cells were determined.

uPA [3] = molecular target: T3, uPA (Homo sapiens, UniProt P00749); test: Chromogenic activity towards S2444 of samples withdrawn from LnCaP cell layers; format: biochemical; details: data not shown
T3 construct: two-chain form consisting of the 20 kDa A-chain and the 30 kDa B-chain (protease domain); purchased American Diagnostica (Greenwich, Conn.)
Procedure: as §1

uPA [4] = molecular target: T3, uPA; details: reference 21; cited from earlier work
LnCaP-17 cells = test: Pro-uPA activation by LnCaP-17 cells (two-stage enzymatic assay); format: cell-based, human
Procedure: as §1

uPA [5] = molecular target: T3, uPA; test: Enzymatic assay of uPA with chromogenic substrate S2444; format: biochemical; details: 10 nM uPA, S2444 at Km; read-out: Ki* (apparent equilibrium dissociation constant) ± SD
Procedure: The reversible active site inhibitor HI-10331 (Genentech, Inc.) (having the molecule structure depicted in FIG. 10, and disclosed in U.S. Pat. No. 6,472,393) or HAI-2 were incubated with 0.5 nM hepsin, 0.5 nM matriptase and 10 nM uPA for 30 min in Hepes buffer (20 mM Hepes, pH 7.5, 150 mM NaCl, 5 mM CaCl2, 0.01% Triton X-100) at room temperature. The chromogenic substrates S2366 (for hepsin), S2765 (for matriptase) and S2444 (for uPA) were added at a concentration corresponding to their respective Km values, which were determined in separate experiments. After substrate addition, the linear rates of the increase in absorbance at 405 nm was measured on a kinetic microplate reader (Molecular Devices, Sunnyvale, Calif.).
The Ki values were calculated according to the relationship Ki=IC50/(1+[S]/Km) (23) using the experimentally determined IC50 and Km values for each enzyme-substrate pair. For HAI-2, the apparent Ki values (Ki^*) were determined by fitting the data to the equation for tight binding inhibition (24,25).

T1 sequence (P00750 36-562): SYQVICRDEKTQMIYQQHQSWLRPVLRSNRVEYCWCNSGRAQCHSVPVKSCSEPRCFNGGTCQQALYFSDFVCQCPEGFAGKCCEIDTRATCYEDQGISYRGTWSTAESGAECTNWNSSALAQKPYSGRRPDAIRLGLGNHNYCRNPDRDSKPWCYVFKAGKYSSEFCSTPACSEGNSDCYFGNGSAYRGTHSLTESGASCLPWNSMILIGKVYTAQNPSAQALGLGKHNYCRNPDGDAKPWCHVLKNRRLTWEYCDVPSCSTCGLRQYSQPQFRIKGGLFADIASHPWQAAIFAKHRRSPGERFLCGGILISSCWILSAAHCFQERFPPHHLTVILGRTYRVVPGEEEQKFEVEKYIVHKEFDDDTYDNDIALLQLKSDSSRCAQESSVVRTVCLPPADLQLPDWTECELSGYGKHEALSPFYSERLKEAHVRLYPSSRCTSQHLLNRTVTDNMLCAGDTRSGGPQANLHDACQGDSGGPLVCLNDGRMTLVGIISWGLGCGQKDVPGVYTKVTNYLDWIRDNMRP

Hepsin: soluble His-tagged extracellular domain of human hepsin (Arg45-Leu417), baculovirus expressed
Cleavage of pro-tPA (pro-tPA): does not cleave
Added pro-uPA converted during the experiment (pro-uPA): about 70%
First-order rate constant k ± SD (pro-uPA): 87.1 ± 11.3 10^−3 min^−1
Efficiency of pro-uPA activation compared to matriptase (pro-uPA): about 6 fold

KD1: Kunitz domain-1 inhibitor derived from HAI-1B, produced in E. coli (TEDYCLASNKVGRCRGSFPRWYYDPTEQICKSFVYGGCLGNKNNYLREEECILACRGV)
Inhibition of pro-uPA cleavage (immunoblot) [1]: strongly inhibited
Inhibition of pro-uPA cleavage ([2]; LnCaP-34, 1 μM KD1): almost completely inhibited
Rate of pro-uPA activation per 10^6 cells ± SD ([2]; LnCaP-34, 1 μM KD1, 100 nM pro-uPA, 37° C.): 0.2 ± 0.1 nM uPA hr^−1
Inhibition of chromogenic activity of the withdrawn samples (uPA [3]): not inhibited
Inhibition of uPA (uPA [4]): does not inhibit
Inhibition of pro-uPA cleavage (LnCaP-17 cells; LnCaP-17, 1 μM KD1): almost completely inhibited
Rate of pro-uPA activation per 10^6 cells ± SD (LnCaP-17 cells; LnCaP-17, 1 μM KD1, 100 nM pro-uPA, 37° C.): 0.2 ± 0.2 nM uPA hr^−1

B1: Plasmin: Lys-plasmin from Heamatologic Technologies Inc., known pro-uPA activator (protein)
chain: KVYLSECKTGNGKNYRGTMSKTKNGITCQKWSSTSPHRPRFSPATHPSEGLEENYCRNPDNDPQGPWCYTTDPEKRYDYCDILECEEECMHCSGENYDGKISKTMSGLECQAWDSQSPHAHGYIPSKFPNKNLKKNYCRNPDRELRPWCFTTDPNKRWELCDIPRCTTPPPSSGPTYQCLKGTGENYRGNVAVTVSGHTCQHWSAQTPHTHNRTPENFPCKNLDENYCRNPDGKRAPWCHTTNSQVRWEYCKIPSCDSSPVSTEQLAPTAPPELTPVVQDCYHGDGQSYRGTSSTTTTGKKCQSWSSMTPHRHQKTPENYPNAGLTMNYCRNPDADKGPWCFTTDPSVRWEYCNLKKCSGTEASVVAPPPVVLLPDVETPSEEDCMFGNGKGYRGKRATTVTGTPCQDWAAQEPHRHSIFTPETNPRAGLEKNYCRNPDGDVGGPWCYTTNPRKLYDYCDVPQCAAPSFDCGKPQVEPKKCPGRVVGGCVAHPHSWPWQVSLRTRFGMHFCGGTLISPEWVLTAAHCLEKSPRPSSYKVILGAHQEVNLEPHVQEIEVSRLFLEPTRKDIALLKLSSPAVITDKVIPACLPSPNYVVADRTECFITGWGETQGTFGAGLLKEAQLPVIENKVCNRYEFLNGRVQSTELCAGHLAGGTDSCQGDSGGPLVCFEKDKYILQGVTSWGLGCARPNKPGVYVRVSRFVTWIEGVMRNN
Added pro-uPA converted during the experiment (pro-uPA): about 70%
First-order rate constant k ± SD (pro-uPA): 81.5 ± 14.2 10^−3 min^−1
Efficiency of pro-uPA activation compared to matriptase (pro-uPA): about 6 fold

B2: HAI-2: recombinantly expressed soluble hepatocyte growth factor activator inhibitor-2, a bi-Kunitz inhibitor (protein)
chain: ADRERSIHDFCLVSKVVGRCRASMPRWWYNVTDGSCQLFVYGGCDGNSNNYLTKEECLKKCATVTENATGDLATSRNAADSSVPSAPRRQDSEDHSSDMFNYEEYCTANAVTGPCRASFPRWYFDVERNSCNNFIYGGCRGNKNSYRSEEACMLRCFRQQENPPLPLGSK
Ki (uPA [5]): > 1 µM

B3: Matriptase: matriptase protease domain expressed in E. coli (protein)
chain: VVGGTDADEGEWPWQVSLHALGQGHICGASLISPNWLVSAAHCYIDDRGFRYSDPTQWTAFLGLHDQSQRSAPGVQERRLKRIISHPFFNDFTFDYDIALLELEKPAEYSSMVRPICLPDASHVFPAGKAIWVTGWGHTQYGGTGALILQKGEIRVINQTTCENLLPQQITPRMMCVGFLSGGVDSCQGDSGGPLSSVEADGRIFQAGVVSWGDGCAQRNKPGVYTRLPLFRDWIKENTGV
First-order rate constant k ± SD (pro-uPA): 14.2 ± 4.9 10^−3 min^−1
